As usually defined, the Kd is the free concentration of one partner at which half of the binding sites on the other are occupied at equilibrium, for simple one-to-one binding.

Consider one molecule from patent publication EP2103936A1 (Institut Pasteur, dated 2009).

Values joined by “and” are separate entries in the source; they are usually repeats but may differ in a detail not shown here. Equal values may be shown once.

In the experiment the target is maltose binding protein MalE from E. coli (Escherichia coli, UniProt P0AEX9 27-396 = MBP).

B1: DarpOff7(wt) (designed binder)
chain: MRGSHHHHHHGSDLGRKLLEAARAGQDDEVRILMANGADVNAADNTGTTPLHLAAYSGHLEIVEVLLKHGADVDASDVFGYTPLHLAAYWGHLEIVEVLLKNGADVNAMDSDGMTPLHLAAKWGYLEIVEVLLKHGADVNAQDKFGKTAFDISIDNGNEDLAEILQKLN
In the case of B1, the Kd was 11 nM and 5.6 nM.
